Consider two molecules from article PMC10621992 (PLOS Pathogens, 2023).

The target of this test is T1, GST-BLK, prokaryotically expressed and purified (human, UniProt P51451 1-505).
T1 construct: also called purified recombinant BLK; not shown: GST, N-terminal, kept
The test can be described thus: pull-down. The settings on record: both partners purified.

T1 sequence (P51451 whole entry): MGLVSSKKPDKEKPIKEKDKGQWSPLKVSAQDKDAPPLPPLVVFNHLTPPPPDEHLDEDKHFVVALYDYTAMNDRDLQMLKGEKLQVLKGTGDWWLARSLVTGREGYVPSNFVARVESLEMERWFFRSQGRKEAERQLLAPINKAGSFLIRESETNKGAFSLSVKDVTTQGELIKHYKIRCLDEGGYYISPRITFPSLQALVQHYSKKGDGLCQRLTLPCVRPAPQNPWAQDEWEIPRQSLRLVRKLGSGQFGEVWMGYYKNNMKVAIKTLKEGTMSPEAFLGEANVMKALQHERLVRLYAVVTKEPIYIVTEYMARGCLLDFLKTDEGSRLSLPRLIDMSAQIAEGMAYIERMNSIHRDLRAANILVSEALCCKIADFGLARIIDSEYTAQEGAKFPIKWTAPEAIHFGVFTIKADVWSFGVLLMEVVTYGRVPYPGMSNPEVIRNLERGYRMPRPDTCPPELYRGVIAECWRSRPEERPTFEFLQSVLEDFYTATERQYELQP

B1: IRF3-Flag, purified from HEK293 cells (natural protein, human, UniProt Q14653 1-427, looked up)
chain: MGTPKPRILPWLVSQLDLGQLEGVAWVNKSRTRFRIPWKHGLRQDAQQEDFGIFQAWAEATGAYVPGRDKPDLPTWKRNFRSALNRKEGLRLAEDRSKDPHDPHKIYEFVNSGVGDFSQPDTSPDTNGGGSTSDTQEDILDELLGNMVLAPLPDPGPPSLAVAPEPCPQPLRSPSLDNPTPFPNLGPSENPLKRLLVPGEEWEFEVTAFYRGRQVFQQTISCPEGLRLVGSEVGDRTLPGWPVTLPDPGMSLTDRGVMSYVRHVLSCLGGGLALWRAGQWLWAQRLGHCHTYWAVSEELLPNSGHGPDGEVPKDKEGGVFDLGPFIVDLITFTEGSGRSPRYALWFCVGESWPQDQPWTKRLVMVKVVPTCLRALVEMARVGGASSLENTVDLHISNSHPLSLTSDQYKAYLQDLVEGMDFQGPGES
B1: the binding result is on record as “binds”.

B2: His-IRF3, prokaryotically expressed and purified (natural protein, human, UniProt Q14653 1-427, looked up)
chain: B1 chain
notes: not shown: His, N-terminal, kept
Turning to B2, the binding result is reported as “binds”.
